Experimental data published in article doi:10.1101/2025.09.11.675134, “Biodistribution-Driven Discovery Identifies a Glycosidase-Cleavable Linker to Reprogram Radiotheranostics” (bioRxiv, 2025).
Read-outs that look alike come from different tables or passages of the source.

Legend:
[1] = Urine metabolite analysis by radio-HPLC; format: in vivo; conditions: normal non-tumor-bearing athymic nu/nu mice, i.v. 13–15 MBq in 200 μL PBS (4 μg), urine 1 h post-injection, n = 3
Protocol: To elucidate the role of linker cleavage in reducing renal retention, we performed metabolite analysis of ^86Y-labeled DOTA-TATE derivatives in normal, non-tumor-bearing athymic nu/nu mice. […] These samples were analyzed by radio-HPLC alongside synthetic standards corresponding to the expected cleavage products: ^86Y-DOTA-G-M-OH and ^86Y-DOTA-NHMe (Fig. 4A).

[2] = PET/CT quantification of 86Y-labeled variants in AR42J xenograft mice; format: in vivo; conditions: athymic nude, mouse, in vivo, iv, total radioactivity, 86Y-labeled, PET/CT, AR42J xenograft mice, mean ± SD, n = 3; for SUV at 1 h: 1 h post-injection; for SUV at 4 h: 4 h post-injection; for SUV at 24 h: 24 h post-injection
Protocol: (§1) For studies involving three variants (DOTA -TATE, DOTA-MVK(ε)-TATE, and DOTA-β-Gal-TATE), AR42J cells (5 × 10^6 cells per mouse) were subcutaneously inoculated into the right shoulder of the mice. Tumors were allowed to grow for 3 weeks, reaching a volume of 100 –200 mm³ before being used in subsequent experiments. For biodistribution or PET imaging studies, mice bearing subcutaneous AR42J tumors were administered 1.4 – 1.8 MBq (1 μg) of 111In-labeled DOTA-TATE variants or 2.7 – 4.9 MBq (1 μg) of 86Y-labeled DOTA-TATE variants via […]
(§2) tail vein injection. […]
(§3) PET imaging to assess the uptake of three 86Y-labeled DOTA-TATE variants (2.7 – 4.9 MBq, 1 μg) in the kidney and tumor was performed at 1, 4, and 24 hours post-injection (n = 3 per cohort) in mice bearing AR42J tumors using the MRS*PET/CT 120 scanner (MR Solutions, Guildford, UK). PET/CT data acquisition was managed using Preclinical Scan software (version 4.2.4.0, MR Solutions). Mice were anesthetized with 2% isoflurane, and static PET sc ans were acquired over 10 min. CT scans were obtained for attenuation correction and anatomical co-registration.
(§4) PET data were reconstructed using three-dimensional ordered-subsets expectation maximization, and were subsequently normalized, decay - and dead-time–corrected prior to analysis. PET/CT images were analyzed using MIM software (version 7.2.7, MIM Software Inc., Beachwood, OH, USA), and the quantitative evaluation of the maximum standardized uptake (SUVmax) and the average standardized uptake values (SUVmean) in the kidney and tumor were also performed. […]

[3] = test system: AR42J xenografts; experiment: as above; format: in vivo; conditions: PET SUVmax, 24 h post-injection
Protocol: as §1, §2, §3, §4

[4] = Ex vivo biodistribution of 86Y-labeled variants in AR42J tumor-bearing mice; conditions: athymic nude, mouse, iv, 1 ug, total radioactivity, mean; for tissue uptake at 1 h: 1 h post-injection; for tissue uptake at 4 h: 4 h post-injection; for tissue uptake at 24 h: 24 h post-injection
Protocol: To independently confirm these observations, ex vivo biodistribution studies were conducted using the same ^86Y-labeled compounds at matched timepoints (Fig. S16; Table S3). […]
For studies involving three variants (DOTA -TATE, DOTA-MVK(ε)-TATE, and DOTA-β-Gal-TATE), AR42J cells (5 × 10^6 cells per mouse) were subcutaneously inoculated into the right shoulder of the mice. Tumors were allowed to grow for 3 weeks, reaching a volume of 100 –200 mm³ before being used in subsequent experiments. For biodistribution or PET imaging studies, mice bearing subcutaneous AR42J tumors were administered 1.4 – 1.8 MBq (1 μg) of 111In-labeled DOTA-TATE variants or 2.7 – 4.9 MBq (1 μg) of 86Y-labeled DOTA-TATE variants via tail vein injection. Biodistribution studies with 111In-labeled DOTA -TATE variants were performed 1 hour post -injection (n = 3 per cohort), while studies with 86Y-labeled DOTA-TATE variants were conducted at 1, 4, and 24 hours post -injection (n = 3 per cohort). Mice were euthanized by CO2 asphyxiation, and 10 tissues, including tumors, were collected. All samples were weighed and counted on a gamma counter (2480 Wizard 3, Perkin Elmer Inc., Waltham, MA, USA). Results are presented as percentage of injected activity per gram (%IA/g) and mean values ± standard deviations. […]

[5] = blood, ex vivo, n = 3, read-out: Blood uptake
[6] = femur, ex vivo, n = 3, read-out: Femur uptake
[7] = heart, ex vivo, n = 3, read-out: Heart uptake
[8] = intestine, ex vivo, n = 3, read-out: Intestine uptake
[9] = ex vivo, n = 3, read-out: Tumor uptake
[10] = kidney, ex vivo, n = 3, read-out: Kidney uptake
[11] = liver, ex vivo, n = 3, read-out: Liver uptake
[12] = lung, ex vivo, n = 3, read-out: Lung uptake
[13] = muscle, ex vivo, n = 3, read-out: Muscle uptake
[14] = spleen, ex vivo, n = 3, read-out: Spleen uptake

Compound: C[C@@H](O)[C@H](NC(=O)[C@@H]1CSSC[C@H](NC(=O)[C@@H](Cc2ccccc2)NC(=O)CCCC(=O)Nc2cc(COC(=O)N(C)CCNC(=O)CN3CCN(CC(=O)O)CCN(CC(=O)O)CCN(CC(=O)O)CC3)ccc2O[C@@H]2O[C@H](CO)[C@H](O)[C@H](O)[C@H]2O)C(=O)N[C@@H](Cc2ccc(O)cc2)C(=O)N[C@H](Cc2c[nH]c3ccccc23)C(=O)N[C@@H](CCCCN)C(=O)N[C@@H]([C@@H](C)O)C(=O)N1)C(=O)O [^86Y-DOTA-β-Gal-TATE, metal not drawn]
- Share of total urinary radioactivity corresponding to the cleaved metabolite (86Y-DOTA-G-M-OH or 86Y-DOTA-NHMe) [1]: 47.4%
- SUV at 1 h ([2]; 2.7–4.9 MBq (1 μg), read-out: Kidney SUVmax): 0.54 ± 0.05 SUV
- SUV at 1 h ([2]; read-out: Tumor SUVmax): 1.96 ± 0.26 SUV
- SUV at 4 h ([2]; read-out: Kidney SUVmax): 0.4 ± 0.02 SUV
- SUV at 4 h ([2]; read-out: Tumor SUVmax): 1.63 ± 0.09 SUV
- SUV at 24 h ([2]; read-out: Kidney SUVmax): 0.14 ± 0.01 SUV
- SUV at 24 h ([2]; read-out: Tumor SUVmax): 1.86 ± 0.25 SUV
- T/K ratio higher than that of 86Y-DOTA-MVK(ε)-TATE [3]: approximately 2.7 fold
- T/K ratio higher than that of 86Y-DOTA-TATE [3]: over 10 fold
- tissue uptake at 1 h ([4]; blood, i.v. 1 μg (2.7–4.9 MBq), ex vivo gamma counting, n = 3, read-out: Blood uptake): 0.32 %ID/g
- tissue uptake at 4 h [4, 5]: 0.23 %ID/g
- tissue uptake at 24 h [4, 5]: 0.02 %ID/g
- tissue uptake at 1 h [4, 6]: 0.97 %ID/g
- tissue uptake at 4 h [4, 6]: 0.96 %ID/g
- tissue uptake at 24 h [4, 6]: 1.01 %ID/g
- tissue uptake at 1 h [4, 7]: 0.33 %ID/g
- tissue uptake at 4 h [4, 7]: 0.26 %ID/g
- tissue uptake at 24 h [4, 7]: 0.11 %ID/g
- tissue uptake at 1 h [4, 8]: 0.49 %ID/g
- tissue uptake at 4 h [4, 8]: 0.33 %ID/g
- tissue uptake at 24 h [4, 8]: 0.1 %ID/g
- tissue uptake at 1 h [4, 9]: 9.71 %ID/g
- tissue uptake at 4 h [4, 9]: 9.16 %ID/g
- tissue uptake at 24 h [4, 9]: 9.03 %ID/g
- tissue uptake at 1 h [4, 10]: 3.94 %ID/g
- tissue uptake at 4 h [4, 10]: 3.29 %ID/g
- tissue uptake at 24 h [4, 10]: 0.76 %ID/g
- tissue uptake at 1 h [4, 11]: 0.4 %ID/g
- tissue uptake at 4 h [4, 11]: 0.35 %ID/g
- tissue uptake at 24 h [4, 11]: 0.27 %ID/g
- tissue uptake at 1 h [4, 12]: 0.72 %ID/g
- tissue uptake at 4 h [4, 12]: 0.58 %ID/g
- tissue uptake at 24 h [4, 12]: 0.15 %ID/g
- tissue uptake at 1 h [4, 13]: 0.48 %ID/g
- tissue uptake at 4 h [4, 13]: 0.25 %ID/g
- tissue uptake at 24 h [4, 13]: 0.09 %ID/g
- tissue uptake at 1 h [4, 14]: 0.32 %ID/g
- tissue uptake at 4 h [4, 14]: 0.5 %ID/g
- tissue uptake at 24 h [4, 14]: 0.12 %ID/g
